Results reported in PMC8304084, “A Concerted Action of UBA5 C-Terminal Unstructured Regions Is Important for Transfer of Activated UFM1 to UFC1” (International Journal of Molecular Sciences, 2021).

How the values were obtained:
Assay type in all cases: binding
GABARAP = molecular target: T1, GABARAP (Homo sapiens, UniProt O95166); assay: ITC, UBA5 peptides vs GABARAP; details: 25 °C
T1 construct: modified ubiquitin tag (Ub19) with TEV site (N, cleaved yes); made in house; host or cells: E. coli T7 Express
Source text: (§1) To understand how the UBA5 C-terminus participates in the ufmylation cascade, we performed isothermal titration calorimetry (ITC) experiments, in which we titrated UBA5 C-terminal peptides (see Table 1) to the UBA5 AD, UFC1, UFM1 and representative LC3/GABARAP proteins (Figure 2A, Supplementary Figure S2A–D and Table 2).
All proteins and peptides were expressed in E.Coli T7 Express (New England Biolabs GmbH, Frankfurt, Germany) cells in LB or M9 (to obtain ^15N- and ^13C,^15N-labeled polypeptides) media according to the protocol described in [33, 36]. For protein purification, bacterial cell pellets were resuspended in lysis buffer (50 mM Tris-HCl pH = 7.5, 100 mM NaCl, 5% glycerol, 5 mM PIC (protease inhibitor cocktail)) and lysed via sonication (TT13 Sonotrode, 40% amplitude, for 6 × 1 min with a 0.5/0.5-s pulse). Lysates were centrifuged for 45 min at 17,000× g at 4 °C. Supernatants were loaded onto a His Trap Fast Flow 5 mL column (GE Healthcare, München, Germany) equilibrated in loading buffer (50 mM Tris-HCl pH = 8.0, 250 mM NaCl, 1% glycerol, 20 mM imidazole). The column was washed with loading buffer for 5–10 CV and protein was eluted with elution buffer (50 mM Tris-HCl pH = 8, 250 mM NaCl, 1% glycerol, 400 mM imidazole). Simultaneous TEV cleavage (1 mg TEV protease was added to 100 mg peptides/proteins) and buffer exchange to loading buffer via dialysis was performed over night at 4 °C. After reverse IMAC, proteins were concentrated with conical concentrators (Millipore Merck, Darmstadt, Germany) and loaded on a Superdex 10/60 75 or 200 column (GE Healthcare, München, Germany) for further purification and equilibration with ITC/NMR buffer (25 mM HEPES pH = 7.5, 100 mM NaCl). […] The protein and peptide concentrations were calculated from the UV absorption at 280 nm by Nanodrop spectrophotometer (Thermo Scientific, Langenselbold, Germany).
All ITC experiments were performed at 25 °C using a VP-ITC microcalorimeter (Malvern Panalytical Ltd., Malvern, UK). […] The ITC data were analyzed based on a “one-site” binding model with MicroCal ITC software implemented in Origin 7.0.

LC3B = molecular target: T2, LC3B (Homo sapiens, UniProt Q9GZQ8); assay: ITC, UBA5 peptides vs LC3B; details: 25 °C, vs LC3B
T2 construct: LC3B, residues 5–120; ubiquitin tag Ub3 (vector pETm60_Ub3) (cleaved yes); made in house; host or cells: E. coli T7 Express
Source text: as §1
All proteins and peptides were expressed in E.Coli T7 Express (New England Biolabs GmbH, Frankfurt, Germany) cells in LB or M9 (to obtain ^15N- and ^13C,^15N-labeled polypeptides) media according to the protocol described in [33, 36]. For protein purification, bacterial cell pellets were resuspended in lysis buffer (50 mM Tris-HCl pH = 7.5, 100 mM NaCl, 5% glycerol, 5 mM PIC (protease inhibitor cocktail)) and lysed via sonication (TT13 Sonotrode, 40% amplitude, for 6 × 1 min with a 0.5/0.5-s pulse). Lysates were centrifuged for 45 min at 17,000× g at 4 °C. Supernatants were loaded onto a His Trap Fast Flow 5 mL column (GE Healthcare, München, Germany) equilibrated in loading buffer (50 mM Tris-HCl pH = 8.0, 250 mM NaCl, 1% glycerol, 20 mM imidazole). The column was washed with loading buffer for 5–10 CV and protein was eluted with elution buffer (50 mM Tris-HCl pH = 8, 250 mM NaCl, 1% glycerol, 400 mM imidazole). Simultaneous TEV cleavage (1 mg TEV protease was added to 100 mg peptides/proteins) and buffer exchange to loading buffer via dialysis was performed over night at 4 °C. After reverse IMAC, proteins were concentrated with conical concentrators (Millipore Merck, Darmstadt, Germany) and loaded on a Superdex 10/60 75 or 200 column (GE Healthcare, München, Germany) for further purification and equilibration with ITC/NMR buffer (25 mM HEPES pH = 7.5, 100 mM NaCl). For structural NMR spectroscopy, buffer containing 50 mM Tris-HCl pH = 7.5, 100 mM NaCl was used. Prior to NMR experiments, TCEP and protease inhibitors cocktail were added to the samples to final concentrations 1 and 5 mM, respectively. Purified peptides and protein were concentrated and stored at −80 °C. The protein and peptide concentrations were calculated from the UV absorption at 280 nm by Nanodrop spectrophotometer (Thermo Scientific, Langenselbold, Germany).
All ITC experiments were performed at 25 °C using a VP-ITC microcalorimeter (Malvern Panalytical Ltd., Malvern, UK). Peptides in concentration of ~400 µM were titrated into 20–25 µM solutions of corresponding binding partner at a stirring speed of 307 rpm. The raw data were corrected on the dilution heat of peptides obtained in independent experiment (titration of the peptide in syringe into the ITC/NMR buffer in the measuring cell). Pre-titration delay was set to 180 s, interval between titration steps was experimentally adjusted to avoid kinetic contribution to the observed heat effects and set to 200 s. A single ITC profile was collected for each type of interaction. The ITC data were analyzed based on a “one-site” binding model with MicroCal ITC software implemented in Origin 7.0.

AD^1–330 = assay: NMR titration of R1-R2-R3^325–404 with UBA5 AD^1–330; details: 2-fold molar excess of AD^1–330, 900 MHz
Method: All NMR experiments were performed at a sample temperature of 25 °C on Bruker 600, 700, 800, 900, and 950 MHz spectrometers equipped with cryogenic probes, and a 500 MHz spectrometer equipped with a room-temperature triple-resonance probe. All NMR spectra were analyzed with the Sparky 3.114 software (University of California, San Francisco, USA). For NMR titration experiments, the non-labeled UBA5 peptides were titrated to 100 µM ^13C,^15N-labeled UFC1 to a final molar ratio of 1:8 (UFC1:UBA5 peptide). Conversely, 100 µM ^13C,^15N-labeled UBA5 peptides were titrated with non-labeled UFC1 to a final molar ratio 1:4 (UBA5 peptide:UFC1). 2D ^1H-^15N correlation spectra ([^15N,^1H] TROSY-HSQC) were recorded at each titration point. The same types of spectra were recorded to estimate binding of ^13C,^15N-labeled UFC1 (75 µM) to non-labeled UBA5, UBA5~UFM1 and UFM1 at 1:2 molar ratios. CSP values, Δδ, were calculated for each individual amide group using the formula Δδ = [(ΔδN/5)^2 + Δδ^2HN)]^1/2. […]
experiment, non‐labelled AD1–330 construct was added to the 15N‐labelled R1‐R2‐R3325–404 peptide to a 2‐fold molar excess.
Representative area of [15N,1H] TROSY‐HSQC spectra recorded at 900 MHz for R1‐R2‐R3325–404 in free form (red contours) and in presence of AD1–330 (blue contours) are overlaid. […]

T1 sequence (O95166 3-116): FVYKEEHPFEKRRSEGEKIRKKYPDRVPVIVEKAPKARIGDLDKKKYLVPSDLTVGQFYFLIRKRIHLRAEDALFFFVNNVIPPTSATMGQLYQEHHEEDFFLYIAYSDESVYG

Substance: R1-R2-R3^325–404: UBA5 C-terminal part, residues 325–404 (recombinant, E. coli)
- ΔG (GABARAP): -8.15 kcal/mol
- ΔS (GABARAP): 24.2 cal mol^−1 K^−1
- −T*ΔS (GABARAP): -7.22 kcal/mol
- ΔG (LC3B): -7.33 kcal/mol
- ΔS (LC3B): 8.86 cal mol^−1 K^−1
- −T*ΔS (LC3B): -2.64 kcal/mol
- KA*10^−6 (LC3B; value is KA × 10^−6, ± = fitting error): 0.24 ± 0.09 M^−1
- interaction with UBA5 AD (AD^1–330): No interactions
